We go through 2 molecules from PMC2838725 (Biochemistry, 2010).

No end group written: not given here.

The target in test [1] is C-terminal domain of Stt3p (residues 466-718), N-terminal His6-tagged (Saccharomyces cerevisiae) (UniProt P39007). Nature of the test: NMR titration.
Test [2] concerns the target T1, C-terminal domain of Stt3p (residues 466-718), N-terminal His6-tagged (Saccharomyces cerevisiae, UniProt P39007 466-718).
T1 sequence (looked up): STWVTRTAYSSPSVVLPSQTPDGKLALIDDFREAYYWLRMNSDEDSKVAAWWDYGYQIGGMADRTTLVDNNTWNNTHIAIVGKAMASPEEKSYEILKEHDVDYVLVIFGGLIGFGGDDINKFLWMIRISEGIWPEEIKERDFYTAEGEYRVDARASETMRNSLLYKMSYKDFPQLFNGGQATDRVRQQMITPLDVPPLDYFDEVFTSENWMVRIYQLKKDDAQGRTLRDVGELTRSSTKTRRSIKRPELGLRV
Nature of the test: saturation transfer difference.

A word on the Kd: it is the equilibrium constant for the complex coming apart. The low end stands for a tighter complex, the high end for a looser complex. In test [1], substrate peptide Asn-Asp-Thr-NH2 displayed a Kd of 9.97 mM.

Take YNSTSC-NH2 [six-residue acceptor substrate peptide Tyr-Asn-Ser-Thr-Ser-Cys-Am]: the binding result in test [2] is recorded as “binds”.
